Experimental data published in patent US20150299277A1 (UNIVERSITY OF TOKYO, published 2015).

Assays:
[1] = target: T1, Myc- and His-tagged full-length human PTX3 (human, UniProt P26022 18-381); assay: dot blot: fragments on nitrocellulose, PTX3 overlay, anti-myc detection (FIG. 12A left)
T1 construct: also called full-length PTX3; Myc-tagged full-length PTX3; not shown: Myc and His tags of the pEF4/Myc-His B vector

[2] = target: T2, Myc- and His-tagged C-terminal domain human PTX3 (animal cell expressed) (human, UniProt P26022 179-381); assay: as above
T2 construct: also called C-terminal domain of PTX3; C-terminal fragment of PTX3; not shown: Myc and His tags of the pEF4/Myc-His B vector
T2 sequence: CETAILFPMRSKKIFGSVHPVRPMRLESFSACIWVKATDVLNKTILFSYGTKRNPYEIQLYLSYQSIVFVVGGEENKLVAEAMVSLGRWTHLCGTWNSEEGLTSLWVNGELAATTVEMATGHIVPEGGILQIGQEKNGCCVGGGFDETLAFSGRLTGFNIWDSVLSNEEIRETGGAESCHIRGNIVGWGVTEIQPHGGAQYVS

| Binder | binding result [1] | binding result [2] |
| --- | --- | --- |
| EIRRYQKSTELLIRKLPFQR [histone H3 fragment H3-6] | binds | – |
| LVGLFEDTNLCAIHAKRVTI [histone H3 fragment H3-11] | binds | binds |
